Some targets named below: NLRC4_CARD (human) (UniProt Q9NPP4); CASP1_CARD (human) (UniProt P29466); ASC_PYD-CARD (human) (UniProt Q9ULZ3); IRAK3_DD (human) (UniProt Q9Y616); FADD_DED-DD (human) (UniProt Q13158); CASP2_CARD (human) (UniProt P42575); PYDC2_PYD (human) (UniProt Q56P42); TNFRSF1A_DD (human) (UniProt P19438); CASP10_DED1-DED2 (human) (UniProt Q92851); TRADD_DD (human) (UniProt Q15628); CFLAR_DED1-DED2 (human) (UniProt O15519); RIPK1_DD (human) (UniProt Q13546); CASP8_DED1-DED2 (human) (UniProt Q14790); CASP8_DED1 (human) (UniProt Q14790); DAPK1_DD (human) (UniProt P53355).

What all share (experiment): AlphaScreen or HTRF; ALPHA: FLAG-tagged domain mixed with biotin-tagged domain (cell-free translation mixtures), streptavidin donor beads, anti-DYKDDDDK antibody with protein A acceptor beads; 100 mM Tris-HCl pH 8.0, 0.01% Tween 20, 1 mg/mL BSA; 25 °C, 24 h; median of duplicate reactions

This note sets out measurements from publication PMC8564539.

Sequence of FADD_DED-DD (human) (Q13158 whole entry): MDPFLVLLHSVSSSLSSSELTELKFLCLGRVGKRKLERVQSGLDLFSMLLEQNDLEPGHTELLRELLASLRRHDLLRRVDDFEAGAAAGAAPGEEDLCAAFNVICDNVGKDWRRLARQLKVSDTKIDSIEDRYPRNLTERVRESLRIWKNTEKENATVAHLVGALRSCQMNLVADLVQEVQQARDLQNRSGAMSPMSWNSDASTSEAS
Sequence of TRADD_DD (human) (Q15628 179-289): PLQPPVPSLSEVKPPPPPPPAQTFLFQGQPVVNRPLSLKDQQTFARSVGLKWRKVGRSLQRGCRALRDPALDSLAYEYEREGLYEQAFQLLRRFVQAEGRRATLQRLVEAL
Sequence of FADD_DED-DD (Q13158 whole entry, the tested form may be a part): as the sequence (Q13158 whole entry) above
Sequence of CASP2_CARD (human) (P42575 32-121): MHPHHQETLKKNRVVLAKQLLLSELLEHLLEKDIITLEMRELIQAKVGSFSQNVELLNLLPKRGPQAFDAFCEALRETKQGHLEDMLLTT
Sequence of RIPK1_DD (human) (Q13546 583-669): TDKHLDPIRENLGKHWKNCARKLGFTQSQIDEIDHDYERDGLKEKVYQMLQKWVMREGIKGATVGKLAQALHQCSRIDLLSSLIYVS
Sequence of CRADD_CARD-DD (P78560 whole entry, the tested form may be a part): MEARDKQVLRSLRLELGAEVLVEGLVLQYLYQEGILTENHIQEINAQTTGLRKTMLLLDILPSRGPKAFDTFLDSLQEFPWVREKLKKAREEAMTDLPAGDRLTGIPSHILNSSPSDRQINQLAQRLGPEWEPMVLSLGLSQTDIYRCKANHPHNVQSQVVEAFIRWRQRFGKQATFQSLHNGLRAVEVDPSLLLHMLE
Sequence of NLRC4_CARD (human) (Q9NPP4 1-88): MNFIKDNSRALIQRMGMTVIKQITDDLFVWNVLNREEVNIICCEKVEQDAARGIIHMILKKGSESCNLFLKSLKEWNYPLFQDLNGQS
Sequence of DAPK1_DD (human) (P53355 1312-1396): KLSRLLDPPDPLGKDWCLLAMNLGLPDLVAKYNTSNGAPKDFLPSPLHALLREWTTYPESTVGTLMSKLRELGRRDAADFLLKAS
Sequence of IRAK3_DD (human) (Q9Y616 whole entry): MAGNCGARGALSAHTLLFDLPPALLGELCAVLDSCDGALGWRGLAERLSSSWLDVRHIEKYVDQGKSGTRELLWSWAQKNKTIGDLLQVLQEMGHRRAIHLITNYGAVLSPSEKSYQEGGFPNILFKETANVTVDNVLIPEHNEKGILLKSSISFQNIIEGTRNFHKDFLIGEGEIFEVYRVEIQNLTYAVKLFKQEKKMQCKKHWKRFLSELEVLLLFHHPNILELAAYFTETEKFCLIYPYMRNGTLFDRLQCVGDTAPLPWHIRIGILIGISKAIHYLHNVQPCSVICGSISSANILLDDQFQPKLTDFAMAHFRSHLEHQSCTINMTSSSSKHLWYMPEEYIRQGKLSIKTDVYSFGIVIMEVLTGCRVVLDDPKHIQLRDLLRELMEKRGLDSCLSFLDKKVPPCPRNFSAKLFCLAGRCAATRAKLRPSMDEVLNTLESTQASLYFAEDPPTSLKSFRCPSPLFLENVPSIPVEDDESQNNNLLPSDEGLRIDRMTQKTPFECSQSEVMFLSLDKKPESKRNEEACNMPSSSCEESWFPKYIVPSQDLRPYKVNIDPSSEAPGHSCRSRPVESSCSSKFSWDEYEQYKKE
Sequence of ASC_PYD-CARD (human) (Q9ULZ3 whole entry): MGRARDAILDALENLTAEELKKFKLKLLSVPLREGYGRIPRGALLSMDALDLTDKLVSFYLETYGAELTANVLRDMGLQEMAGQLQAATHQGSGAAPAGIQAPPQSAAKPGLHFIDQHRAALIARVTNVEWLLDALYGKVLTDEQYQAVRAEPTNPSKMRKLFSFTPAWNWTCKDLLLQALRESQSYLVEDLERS
Sequence of CASP1_CARD (human) (P29466 1-91): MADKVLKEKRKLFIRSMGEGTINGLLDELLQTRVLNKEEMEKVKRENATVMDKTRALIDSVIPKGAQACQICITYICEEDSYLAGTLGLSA
Sequence of CASP1_CARD (P29466 1-91): as above
Sequence of TNFRSF1A_DD (human) (P19438 356-441): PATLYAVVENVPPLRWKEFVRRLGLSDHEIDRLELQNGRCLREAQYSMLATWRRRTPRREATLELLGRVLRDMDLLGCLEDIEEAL
Sequence of PYDC2_PYD (human) (Q56P42 whole entry): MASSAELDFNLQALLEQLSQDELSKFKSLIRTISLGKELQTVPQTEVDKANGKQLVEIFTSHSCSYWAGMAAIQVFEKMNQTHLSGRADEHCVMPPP

With “ASC_PYD-CARD (from UniProt Q9ULZ3 1-195) (domain or fragment)”, the values for the ALPHA signal (RLU) with NLRC4_CARD (human) and in the assay with CASP1_CARD (human) were 1690 RLU and 1730 RLU, respectively. As for “CASP1_CARD (from UniProt P29466 1-91) (domain or fragment)”, the ALPHA signal (RLU) in the assay with ASC_PYD-CARD (human) stood at 4880 RLU. As to “CASP8_DED1 (from UniProt Q14790 2-80) (domain or fragment)”, the ALPHA signal (RLU) with IRAK3_DD (human) is 968 RLU. For the substance “CASP8_DED1-DED2 (from UniProt Q14790 1-177) (domain or fragment)”, the ALPHA signal (RLU) in the assay with FADD_DED-DD (human) was found to be 9380 RLU. Consider “CASP10_DED1-DED2 (from UniProt Q92851 19-187) (domain or fragment)”, for which the ALPHA signal (RLU) in the assay with FADD_DED-DD (human) worked out at 10200 RLU. With “CRADD_CARD-DD (from UniProt P78560 1-199) (domain or fragment)”, in the assay with CASP2_CARD (human), the ALPHA signal (RLU) turned out to be 2420 RLU.

With “DAPK1_DD (from UniProt P53355 1312-1396) (domain or fragment)”, the ALPHA signal (RLU) with PYDC2_PYD (human) came to 3540 RLU. As for “FADD_DED-DD (from UniProt Q13158 1-208) (domain or fragment)”, the ALPHA signal (RLU) with TNFRSF1A_DD (human) worked out at 964 RLU; in the assay with CASP10_DED1-DED2 (human), 20700 RLU; with TRADD_DD (human) it was 39600 RLU; in the assay with CFLAR_DED1-DED2 (human), 20100 RLU; with RIPK1_DD (human), 20000 RLU; with CASP8_DED1-DED2 (human) it was 11000 RLU. Regarding “IRAK3_DD (from UniProt Q9Y616 1-596) (domain or fragment)”, in the assay with CASP8_DED1 (human), the ALPHA signal (RLU) came out at 1350 RLU. For the substance “PYDC2_PYD (from UniProt Q56P42 1-97) (domain or fragment)”, the ALPHA signal (RLU) with DAPK1_DD (human) amounted to 970 RLU. Turning to “RIPK1_DD (from UniProt Q13546 583-669) (domain or fragment)”, the ALPHA signal (RLU) with FADD_DED-DD (human) worked out at 30600 RLU. Same read-out and setting: with “TNFRSF1A_DD (from UniProt P19438 356-441) (domain or fragment)” the figure was 5570 RLU; with “TRADD_DD (from UniProt Q15628 179-289) (domain or fragment)”, 31700 RLU.
